Source: patent EP4782837A1

Target: Cetux-probe (cetuximab conjugated with the C-probe)
Experiment: cell-based or functional assay

cathepsin B (enzyme)
fold increase of Cetux-probe fluorescence on enzyme treatment (37°C, 1 hour): 24 fold

papain (from UniProt P00784 134-345) (enzyme)
fold increase of Cetux-probe fluorescence on enzyme treatment (37°C, 1 hour): 13.5 fold
